Here are results for 31 molecules from patent publication US20250154277A1 (CONCEPT TO MEDICINE BIOTECH, published 2025).

The labels stand for the following.
B1: Hu14G12-14 (antibody, V domains shown)
VH: EVQLVQSGAEVKKPGATVKISCKASGYAFSSSWMNWVKQAPGKGLEWIGRIYREDGHTNYNGKFKGRATITADTSTTTAYMELSSLRSEDSAVYFCANGGAMDYWGQGTLVTVSS
VL: DIQMTQSPSSLSASVGDRVTITCRASQDISNYLNWYQQKPGKAPKLLIYYTSRLHSGVPSRFSGSGSGTDYTFTISSLQPEDIATYFCQQDNTLPWTFGGGTKLEIK
notes: humanized
B2: Hu14G12-37 (antibody, V domains shown)
VH: QVQLVQSGAEVKKPGASVKVSCKASGYAFSSSWMNWVRQAPGQGLEWMGRIYREDGHTNYNGKFKGRVTMTADKSTTTAYMELSSLRSEDTAVYYCANGGAMDYWGQGTLVTVSS
VL: B1 VL with S10T, D70E, F73L, E81D, L104V
notes: humanized
B3: Hu14G12-32 (antibody, V domains shown)
VH: B2 VH with T76I, S85R, E89D
VL: B1 VL with S10T, D70E, F73L, E81D, L104V
notes: humanized
B4: Hu14G12-23 (antibody, V domains shown)
VH: B2 VH with A16S, M70I
VL: B1 VL with L104V
notes: humanized
B5: Hu14G12-10 (antibody, V domains shown)
VH: B1 VH with A24V, S91T
VL: B1 VL
notes: humanized
B6: Hu14G12-6 (antibody, V domains shown)
VH: B1 VH with A24V, K38Q, A68V, T77D, S91T
VL: B1 VL
notes: humanized
B7: Hu14G12-43 (antibody, V domains shown)
VH: B2 VH with S84R, E89D
VL: B1 VL with L104V
notes: humanized
B8: Hu14G12-29 (antibody, V domains shown)
VH: B2 VH with T76I, S85R, E89D
VL: B1 VL with F73L, L104V
notes: humanized
B9: Hu14G12-2 (antibody, V domains shown)
VH: B1 VH with A24V, K38Q, I48M, A68V, T77D, S91T, F95Y, N98T
VL: B1 VL
notes: humanized
B10: Hu14G12-33 (antibody, V domains shown)
VH: B2 VH
VL: B1 VL with L104V
notes: humanized
B11: Hu14G12-17 (antibody, V domains shown)
VH: QVQLVQSGAEVKKPGSSVKVSCKASGGTFSSSWMNWVKQAPGQGLEWIGRIYREDGHTNYNGKFKGKATLTADKSTSTAYMELSSLRSEDTAVYFCANGGAMDYWGQGTTVTVSS
VL: B1 VL with A43V, Y71F, F73L, I83V, F87Y
notes: humanized
B12: Hu14G12-36 (antibody, V domains shown)
VH: B2 VH
VL: DIVMTQSPDSLAVSLGERATINCRASQDISNYLNWYQQKPGQPPKLLIYYTSRLHSGVPDRFSGSGSGTDYTLTISSLQAEDIAVYFCQQDNTLPWTFGGGTKVEIK
notes: humanized
B13: Hu14G12-21 (antibody, V domains shown)
VH: B11 VH with K67R, L70I
VL: B1 VL with A43V, Y71F, F73L, I83V, F87Y
notes: humanized
B14: Hu14G12-35 (antibody, V domains shown)
VH: B2 VH
VL: EIVMTQSPATLSLSPGERATLSCRASQDISNYLNWYQQKPGQAPRLLIYYTSRLHSGIPARFSGSGSGTDYTLTISSLEPEDIAVYFCQQDNTLPWTFGGGTKVEIK
notes: humanized
B15: Hu14G12-20 (antibody, V domains shown)
VH: B11 VH with K67R
VL: B1 VL with A43V, F73L, I83V
notes: humanized
B16: Hu14G12-22 (antibody, V domains shown)
VH: B11 VH with K67R, L70I
VL: B1 VL with A43V, F73L, I83V
notes: humanized
B17: Hu14G12-19 (antibody, V domains shown)
VH: B11 VH with K67R
VL: B1 VL with A43V, Y71F, F73L, I83V, F87Y
notes: humanized
B18: Hu14G12-34 (antibody, V domains shown)
VH: B2 VH
VL: B1 VL with F73L, L104V
notes: humanized
B19: Hu14G12-40 (antibody, V domains shown)
VH: B2 VH with G44R, M70I, T76A
VL: B14 VL
notes: humanized
B20: Hu14G12-30 (antibody, V domains shown)
VH: B2 VH with T76I, S85R, E89D
VL: B14 VL
notes: humanized
B21: Hu14G12-24 (antibody, V domains shown)
VH: B2 VH with A16S, M70I
VL: B1 VL with F73L, L104V
notes: humanized
B22: Hu14G12-41 (antibody, V domains shown)
VH: B2 VH with G44R, M70I, T76A
VL: B12 VL
notes: humanized
B23: Hu14G12-25 (antibody, V domains shown)
VH: B2 VH with A16S, M70I
VL: B14 VL
notes: humanized
B24: Hu14G12-39 (antibody, V domains shown)
VH: B2 VH with G44R, M70I, T76A
VL: B1 VL with F73L, L104V
notes: humanized
B25: Hu14G12-27 (antibody, V domains shown)
VH: B2 VH with A16S, M70I
VL: B1 VL with S10T, D70E, F73L, E81D, L104V
notes: humanized
B26: Hu14G12-38 (antibody, V domains shown)
VH: B2 VH with G44R, M70I, T76A
VL: B1 VL with L104V
notes: humanized
B27: Hu14G12-26 (antibody, V domains shown)
VH: B2 VH with A16S, M70I
VL: B12 VL
notes: humanized
B28: Hu14G12-42 (antibody, V domains shown)
VH: B2 VH with G44R, M70I, T76A
VL: B1 VL with S10T, D70E, F73L, E81D, L104V
notes: humanized
B29: Hu14G12-31 (antibody, V domains shown)
VH: B2 VH with T76I, S85R, E89D
VL: B12 VL
notes: humanized
B30: Hu14G12-46 (antibody, V domains shown)
VH: B2 VH with S84R, E89D
VL: B12 VL
notes: humanized
B31: Hu14G12-45 (antibody, V domains shown)
VH: B2 VH with S84R, E89D
VL: B14 VL
notes: humanized

Substitutions are numbered along the chain they refer to.

The target in one assay is T1, human 5T4-His protein (human, UniProt Q13641 32-355).
T1 construct: also called recombinant 5T4 protein (human 5T4-his tag); human 5T4 protein; not shown: His tag
T1 sequence (looked up): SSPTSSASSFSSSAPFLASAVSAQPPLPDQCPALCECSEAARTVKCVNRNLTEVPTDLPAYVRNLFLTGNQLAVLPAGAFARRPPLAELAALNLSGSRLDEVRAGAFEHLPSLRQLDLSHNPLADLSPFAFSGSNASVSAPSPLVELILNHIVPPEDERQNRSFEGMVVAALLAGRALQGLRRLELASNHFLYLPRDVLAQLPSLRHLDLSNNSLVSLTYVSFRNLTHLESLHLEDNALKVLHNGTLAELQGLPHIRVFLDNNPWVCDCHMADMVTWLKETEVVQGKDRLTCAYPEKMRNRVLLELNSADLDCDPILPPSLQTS
The assay can be described thus: SPR Biacore, Protein A capture. As for the experimental part: The binding of the 14G12 humanized antibodies to recombinant 5T4 protein (human 5T4-his tag) was tested with Biacore using a capture method. The mAbs were captured using Protein A chip. Serial dilution of human 5T4-his tag protein was injected over captured antibody for 120 s-180 s at a flow rate of 30 μl/min. The antigen was allowed to dissociate for 360 s-1000 s. All the experiments were carried out on a Biacore T200. Data analysis was carried out using the Biacore T200 evaluation software.
B1 displayed an equilibrium dissociation constant (Kd) of 3.39 nM, a koff of 0.000701 s⁻¹ and a kon of 207000 M⁻¹ s⁻¹.
Molecule B2 yielded a Kd of 1.05 nM, a koff of 0.00142 s⁻¹ and a kon of 1.34e+06 M⁻¹ s⁻¹.
Take B3: the Kd is 2.76 nM, the koff is 0.000979 s⁻¹ and the association rate constant (kon) amounted to 355000 M⁻¹ s⁻¹.
B4 displayed a Kd of 2.58 nM, a koff of 0.000908 s⁻¹ and a kon of 352000 M⁻¹ s⁻¹.
Consider B5, for which the affinity, expressed as Kd, was 2.42 nM; the koff was 0.000512 s⁻¹; the kon turned out to be 212000 M⁻¹ s⁻¹.
In the same order, the values of B6 are 2.68 nM, 0.00077 s⁻¹ and 288000 M⁻¹ s⁻¹.
B7 came in with a Kd of 0.844 nM, an off-rate (koff) of 0.0016 s⁻¹ and an association rate constant (kon) of 1.89e+06 M⁻¹ s⁻¹.
As to B8, the dissociation constant (Kd) is 2.14 nM, the koff was 0.0011 s⁻¹ and the kon was determined as 514000 M⁻¹ s⁻¹.
The molecule B9 yielded a Kd of 21.5 nM, a koff of 0.00436 s⁻¹ and a kon of 203000 M⁻¹ s⁻¹.

Another assay deals with T1, human 5T4-His protein. The assay can be described thus: ELISA, coated 5T4-His. On the procedure: To evaluate the binding activity of 14G12 humanized antibodies to human 5T4, the 14G12 chimeric antibody along with 14G12 humanized mAbs were subjected to ELISA test.
Briefly, microtiter plates were coated with human 5T4-His protein at 1 μg/ml in PBS, 100 μl/well at 4° C. overnight, then blocked with […]. Serial dilutions of antibodies were added to each well and incubated for 1 hour at 37° C. The plates were washed with PBS/Tween and then incubated with Goat Anti-Human IgG-HRP for 30 mins at 37° C. After washing, the plates were developed with TMB substrate and analyzed by spectrophotometer at OD 450 nm. As shown in FIG. 10 and Table 6, most of the humanized antibodies bound to human 5T4 at high activity.
As for B10, the EC50 is 11 ng/mL.
In the case of B11, the EC50 worked out at 520 ng/mL.
With B12, the EC50 came to 6.8 ng/mL.
On to B13, for which the EC50 worked out at 400 ng/mL.
On the same count and under the same terms, as for B14, the figure is 13 ng/mL; as for B15, 320 ng/mL.
B16 returned an EC50 of 450 ng/mL.
In turn, B17 yielded an EC50 of 400 ng/mL.
As to B1, the response was half-maximal at 14 ng/mL (EC50).
B18 yielded a 50% effective concentration (EC50) of 8.7 ng/mL. This EC50 is about 1.6-fold lower than that of the molecule before.
Molecule B19 displayed a concentration giving a half-maximal response (EC50) of 28 ng/mL.
Molecule B20 returned an EC50 of 10 ng/mL. Against the preceding molecule, the EC50 is about 2.8-fold lower.
The same measure, in the same setting: as for B21, the figure is 4.9 ng/mL; as for B2, 11 ng/mL; as for B22, 4.7 ng/mL.
Turning to B3, it took 9.3 ng/mL to reach a half-maximal effect (EC50).
B4 showed an EC50 of 7.1 ng/mL.
The molecule B5 gave an EC50 of 15 ng/mL.
With B23, the EC50 was 6 ng/mL.
Regarding B6, the EC50 worked out at 10 ng/mL.
With B24, the EC50 was found to be 6.9 ng/mL.
The same measure, in the same setting: as for B7, the figure is 6.4 ng/mL.
B25 gave an EC50 of 7.8 ng/mL.
The same measure, in the same setting: the result for B26 reads 6.4 ng/mL; that for B8, 6.7 ng/mL; that for B27, 6.9 ng/mL.
For B28, a half-maximal response (EC50) required 7.8 ng/mL. The EC50 values of the last two molecules are within 1.5-fold of each other.
Still for that read-out and setting: the result for B29 reads 8.4 ng/mL; that for B9, 21 ng/mL; that for B30, 23 ng/mL.
B31 had an EC50 of 8.2 ng/mL.
